Measured values as given in patent US11413329B2, “Cancer cell trap” (BOARD OF REGENTS, THE UNIVERSITY OF TEXAS SYSTEM, priority 2012, dated 2022).
Entries after “also recorded” stand apart in the source; their conditions may differ.

How the values were obtained:
[1] = Release rates of chemokines/growth factors from cancer cell traps; settings: for Release rates: optimal release rate from cancer cell traps; for Duration: release from cancer cell traps
From the text: The Experiments have been carried out to determine the release rates of various cancer stem cell chemokines/growth factors from cancer cell traps. The optimal release rates for each biomolecules are listed below.
Cancer cell trap size and dimension for human patients. All studies carried out thus far used mice cancer models. Since the cancer cells are recruited based on the chemokines gradient, localized concentrations, but not the systemic concentrations, are the determining factors. In other words, the effectiveness of the cancer cell traps are determined on the localized release rates as listed in the above table.

[2] = system: PC3 prostate cancer cells; assay: PC3 prostate cancer cell recruitment to PEG hydrogel cancer cell traps; assay type: in vivo, mouse; settings: C57 mice, released from subcutaneous PEG hydrogel, 24 hours after intravenous transplantation, fluorescence intensity, vs saline
From the text: Using near-infrared labeled PC3 prostate cell transplanted mice, the effect of hydrogel cancer cell traps in reducing cancer metastasis was studied. Specifically, PEG hydrogel was fabricated as following. Carboxyl-terminal PEG derivative polymer was synthesized using free radical polymerization. In brief, 4,4′-azobis(4-cyanovaleric acid) and various weight ratios (10:1-20:1) of 2-(2-Methoxyethoxy)ethyl methacrylate (MEO2MA) and oligo(ethylene glycol)monomethyl ether methacrylates (Mw:475;OEOMA475) were dissolved in ethanol to form a 20 wt % monomer solution. The solution was purged with nitrogen gas for 10 min and incubated at 60° C. for 6 h. The solvent was then removed with evaporation under vacuum and the crude polymers are re-dissolved in DI water and were purified with exhaust dialysis against DI water and then lyophilized. The low critical solution temperature (LCST) of the carboxyl-terminal PEG derivative polymers was determined using an UV-vis spectrometer. By changing the molar ratios of MEO2MA to OEOMA475, the carboxyl-terminal PEG derivative polymer with LCST of 32° C. was achieved and the polymer used to fabricate thermogelling bioactive hydrogel scaffold as described below. Incorporation of chemokines/cytokines to PEG hydrogel was achieved by physical adsorption. PEG hydrogel was mixed with vascular endothelial growth factor (VEGF) (100 ng/ml), erythropoietin (EPO) (100 international unit/ml), stromal derived factor-1α (SDF-1α) or saline (as control). The hydrogel samples were then injected into the subcutaneous cavity (under the skin) of C57 mice via 20 gauge needles. The mice were then transplanted intravenously with PC3 prostate cancer cells (5×10^6/mouse).

[3] = system: CD11b+ inflammatory cells; assay: Murine cancer metastasis model: inflammatory cell recruitment to subcutaneous microsphere implants; assay type: in vivo, C57BL/6 mice; settings: vs control
Description: The animal experiments were carried out using C57BL/6 mice (6-10 week old) from Jackson Laboratory (Bar Harbor, Me., USA). This murine cancer metastasis model comprised of two consecutive steps. First, biomaterial microspheres (75 mg/0.5 ml saline/mouse) were implanted in the dorsal subcutaneous space of mice to elicit localized subcutaneous inflammation. Second, after microsphere implantation for different periods of time (6 hours-14 days), cancer cells (5×10^6 cells/0.2 ml/mouse) were transplanted in the peritoneal cavity. 24 h after tumor cell trans-plantation the animals were sacrificed. The vital organs, lymph nodes, the microsphere implants and surrounding tissues were then recovered and frozen in OCT embedding media (Polysciences Inc., Warrington, Pa., USA) at -80° C. The peripheral blood was also collected for further analysis. Eight μm thick sections were sliced using a Leica Cryostat (CM1850) and placed on poly-L-lysine coated slides for histological and immunohistochemical analyses. […] FITC-conjugated antibody incubated tissue section was ready for image analysis. […] All tissue section images were taken using a Leica fluorescence microscope (Leica Microsystems GmbH, Wetzlar, Germany) equipped with a Retiga-EXi CCD camera (QImaging, Surrey, BC, Canada) as described earlier. […]

[4] = system: B16F10 melanoma cells; assay: Murine cancer metastasis model: melanoma cell migration to subcutaneous microsphere implants and lymph nodes; assay type: in vivo, C57BL/6 mice; settings: B16F10 cells intraperitoneal
Description: The animal experiments were carried out using C57BL/6 mice (6-10 week old) from Jackson Laboratory (Bar Harbor, Me., USA). This murine cancer metastasis model comprised of two consecutive steps. First, biomaterial microspheres (75 mg/0.5 ml saline/mouse) were implanted in the dorsal subcutaneous space of mice to elicit localized subcutaneous inflammation. Second, after microsphere implantation for different periods of time (6 hours-14 days), cancer cells (5×10^6 cells/0.2 ml/mouse) were transplanted in the peritoneal cavity. 24 h after tumor cell trans-plantation the animals were sacrificed. The vital organs, lymph nodes, the microsphere implants and surrounding tissues were then recovered and frozen in OCT embedding media (Polysciences Inc., Warrington, Pa., USA) at −80° C. The peripheral blood was also collected for further analysis. […]
Immunohistological analyses for CD11b+ inflammatory cells and HMB45+ melanoma cells were carried out to assess the degree of implant-mediated inflammatory responses and melanoma cell migration, respectively. […] FITC-conjugated antibody incubated tissue section was ready for image analysis. […] All tissue section images were taken using a Leica fluorescence microscope (Leica Microsystems GmbH, Wetzlar, Germany) equipped with a Retiga-EXi CCD camera (QImaging, Surrey, BC, Canada) as described earlier. […]

[5] = Release kinetics of cytokines/growth factors from MB scaffolds; settings: gelatin MB scaffolds; for sustained release, share of total amounts per day: after the bolus; for bolus release: within the first 24 hours
From the text: Chemokine/growth factor loaded PLGA scaffolds were fabricated using our protein microbubble fabrication method. Briefly, 2-20% w/v protein solution with various chemokines was overlaid with nitrogen gas and sonicated using a probe sonicator (Ultrasonix, Bothell, Wash.) at 20 kHz for 10 seconds. Protein solution can be composed of single proteins or protein mixtures in different ratios. The potential protein candidates including albumin, collagen, gelatin, immunoglobulins, extracellular matrix proteins, fibronectin, etc. Protein microbubble solutions can be added to PLGA (3-15% w/v in 1,4 dioxane) in a 1:1 ratio and gently agitated. They were then quenched in liquid nitrogen and lyophilized for 72 hours at 0.01-0.1 mBar vacuum in a Freezone 12 lyophilizer (Labconco, Kansas City, Mo., USA).
The microbubble (MB) scaffolds were analyzed using Scanning Electron Microscopy. […] Protein distribution and internal architecture of the scaffolds was determined by staining histological sections with Coomassie Blue as described earlier. […] In contrast, Coomassie Blue staining of the gelatin MB scaffold sections indicated the presence of protein around the pores and throughout the matrix of the gelatin MB scaffolds (FIG. 12C). The compressive strength of the scaffolds was tested using an MTS Insight 2 machine fitted with a 500 N load cell. Samples (5 mm width and 5 mm thickness) were compressed to 10% strain at a deflection rate of 2 mm/min. The Young's modulus was calculated from the slope of the curve similar to our earlier publication. […] Finally, the release kinetics of cytokines/growth factors from MB scaffolds was determined using Oyster 800-conjugated EPO and Oyster 800-conjugated SDF.

| Compound | Release rates [1] | Duration [1] | recruitment of PC3 prostate cancer cells to the implant sites [2] | other results |
| --- | --- | --- | --- | --- |
| RANTES/CCL5: chemokine released from cancer cell traps | 10 ng/1 milliliter of ng/1 milliliter of hydrogel/particle cancer traps or 1 cubic centimeters scaffold traps/day | >21 days |  |  |
| VEGF |  |  | increased the recruitment |  |
| EPO: erythropoietin, released from cancer cell traps | 1.5-2.5 international international units/1 milliliter of hydrogel/particle cancer traps or 1 cubic centimeters scaffold traps/days | >30 days | increased the recruitment |  |
| c1cc(CN2CCCNCCNCCCNCC2)ccc1CN1CCCNCCNCCCNCC1 [AMD3100] |  |  |  | inflammatory cell (CD11b+) recruitment to the subcutaneous microsphere implantation site [3]: drastically reduced; accumulation of melanoma cells in lymph nodes ([4]; PLA microsphere-bearing mice, vs saline): no effect; recruitment of melanoma cells (HMB45+) to the subcutaneous microsphere implantation site ([4]; subcutaneous microsphere implants, 24 h after transplantation, vs control): drastically reduced; also recorded: inhibited |
| SDF-1α | 100 ng/1 milliliter of ng/1 milliliter of hydrogel/particle cancer traps or 1 cubic centimeters scaffold traps/day | >24 days | increased the recruitment |  |
| Hepatocyte growth factor (HGF/SF): hepatocyte growth factor/scatter factor released from cancer cell traps | 15 ng/1 milliliter of ng/1 milliliter of hydrogel/particle cancer traps or 1 cubic centimeters scaffold traps/day | >28 days |  |  |
| Oyster 800-conjugated SDF: NIR dye conjugated SDF released from gelatin MB scaffolds |  |  |  | sustained release, share of total amounts per day [5]: approximately 2%; bolus release [5]: 20% |
| Oyster 800-conjugated EPO: NIR dye conjugated EPO released from gelatin MB scaffolds |  |  |  | sustained release, share of total amounts per day [5]: approximately 2%; bolus release [5]: 20% |
